Test results as given in patent publication US20130165347.

System: Terminal deoxynucleotidyl transferase (TdT, pCMV-TdT / pMTdT)
Assay: cell_activity
Conditions: wild-type CHO KA8 cells, 19 of 27 clones, I-SceI-cleaved ends; 4% without TdT; N addition absent in Ku80- or XRCC4-deficient cells

For TACCCTGTTATCCCTA (double strand), which activity (% junctions with N additions) is on record?
The activity (% junctions with N additions) was 70.
